Data from US20220378925A1 (ORIONIS BIOSCIENCES, published 2022).

Biological target: PD-L1 endogenously expressed on HL116 cells (human, UniProt Q9NZQ7 19-290)
Assay: cell-based or functional assay

Chain of PD-L1 endogenously expressed on HL116 cells (Q9NZQ7 19-290): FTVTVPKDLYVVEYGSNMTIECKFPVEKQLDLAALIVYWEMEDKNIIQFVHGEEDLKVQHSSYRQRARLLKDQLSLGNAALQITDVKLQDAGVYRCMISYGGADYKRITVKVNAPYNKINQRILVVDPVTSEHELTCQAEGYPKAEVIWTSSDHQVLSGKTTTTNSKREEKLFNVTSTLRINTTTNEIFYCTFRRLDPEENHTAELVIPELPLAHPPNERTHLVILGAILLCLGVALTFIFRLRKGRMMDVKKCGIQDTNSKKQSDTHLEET

B1: 2LIG99-hIFNα1, linker-cysteine 12 kDa PEGylated (other)
chain: DVQLVESGGGLVQPGGSLRLSCTASGTIFSINRMDWFRQAPGKQRELVALITSGGTPAYADSAKGRFTISRDNSKNTVYLQMNSLRPEDTAVYYCHVSSGVYNYWGQGTLVTVSSGGSGGSGGSGGSGGSGGSGGSGGSGGSGGCGGSGGSGGSGGSGGSGGSGGSGGSGGSGGSCDLPETHSLDNRRTLMLLAQMSRISPSSCLMDRHDFGFPQEEFDGNQFQKAPAISVLHELIQQIFNLFTTKDSSAAWDEDLLDKFSTELYQQLNDLEACVMQEERVGETPLMNADSILAVKKYFRRITLYLTEKKYSPCAWEVVRAEIMRSLSLSTNLQERLRRKEHHHHHH
modifications: 12 kDa mPEG-Maleimide on the cysteine in the middle of the linker (about 75% monoPEGylated material)
B1 was tested, and the “decrease of biological activity after linker-cysteine PEGylation, HL116 reporter-assay” value was 10 fold.

B2: 2LIG99-hIFNα1, N-terminal 20 kDa PEGylated (other)
chain: DVQLVESGGGLVQPGGSLRLSCTASGTIFSINRMDWFRQAPGKQRELVALITSGGTPAYADSAKGRFTISRDNSKNTVYLQMNSLRPEDTAVYYCHVSSGVYNYWGQGTLVTVSSGGSGGSGGSGGSGGSGGSGGSGGSGGSGGCGGSGGSGGSGGSGGSGGSGGSGGSGGSGGSCDLPETHSLDNRRTLMLLAQMSRISPSSCLMDRHDFGFPQEEFDGNQFQKAPAISVLHELIQQIFNLFTTKDSSAAWDEDLLDKFSTELYQQLNDLEACVMQEERVGETPLMNADSILAVKKYFRRITLYLTEKKYSPCAWEVVRAEIMRSLSLSTNLQERLRRKEHHHHHH
modifications: 20 kDa mPEG-aldehyde on the N-terminal amine (mainly mono-PEGylated)
In the case of B2, the “reduction in biological activity after N-terminal 20 kD PEGylation, HL116 reporter-assay” value is reported as roughly 20 fold.

B3: 2LIG99-hIFNα1, amine PEGylated (polyPEGylated, mPEG20K-Succinimidyl Carboxymethyl Ester) (other)
chain: DVQLVESGGGLVQPGGSLRLSCTASGTIFSINRMDWFRQAPGKQRELVALITSGGTPAYADSAKGRFTISRDNSKNTVYLQMNSLRPEDTAVYYCHVSSGVYNYWGQGTLVTVSSGGSGGSGGSGGSGGSGGSGGSGGSGGSGGCGGSGGSGGSGGSGGSGGSGGSGGSGGSGGSCDLPETHSLDNRRTLMLLAQMSRISPSSCLMDRHDFGFPQEEFDGNQFQKAPAISVLHELIQQIFNLFTTKDSSAAWDEDLLDKFSTELYQQLNDLEACVMQEERVGETPLMNADSILAVKKYFRRITLYLTEKKYSPCAWEVVRAEIMRSLSLSTNLQERLRRKEHHHHHH
modifications: several 20 kDa PEG groups on the N-terminal amine and/or lysine residues (mainly polyPEGylated, sites not stated)
In the case of B3, the “drop of biological activity upon amine (poly)PEGylation, HL116 reporter-assay” value is reported as roughly 20000 fold.
